Assay results taken from patent US20240270846A1 (published 2024).

B1: GLS3000 G91A one-arm antibody (antibody, human IgG1, kappa, L234A L235A, N297A, name in Kabat numbering)
light: DIVMTQSPLSLPVTPGEPASISCRSSQSLVHSNRNTYLHWYQQKPGQAPRLLIYKVSNRFSGVPDRFSGSGSGTDFTLKISRVEAEDVGVYYCGQATQVPYTFGQGTKLEIKRTVAAPSVFIFPPSDEQLKSGTASVVCLLNNFYPREAKVQWKVDNALQSGNSQESVTEQDSKDSTYSLSSTLTLSKADYEKHKVYACEVTHQGLSSPVTKSFNRGEC
heavy: QVQLVESGGGVVQPGRSLRLSCAASGFTFSNAWMHWVRQAPGKGLEWVAQIKAKSNNYATYYAESVKGRFTISRDDSKNSLYLQMNSLKTEDTAVYYCRYVHYGAYYGVDAWGQGTTVTVSSASTKGPSVFPLAPSSKSTSGGTAALGCLVKDYFPEPVTVSWNSGALTSGVHTFPAVLQSSGLYSLSSVVTVPSSSLGTQTYICNVNHKPSNTKVDKKVEPKSCDKTHTCPPCPAPEAAGGPSVFLFPPKPKDTLMISRTPEVTCVVVDVSHEDPEVKFNWYVDGVEVHNAKTKPREEQYASTYRVVSVLTVLHQDWLNGKEYKCKVSNKALPAPIEKTISKAKGQPREPQVYTLPPSRCELTKNQVSLSCAVKGFYPSDIAVEWESNGQPENNYKTTPPVLDSDGSFFLVSKLTVDKSRWQQGNVFSCSVMHEALHNHYTQKSLSLSPDYKDDDDK
chain: EPKSSDKTHTCPPCPAPELLGGPSVFLFPPKPKDTLMISRTPEVTCVVVDVSHEDPEVKFNWYVDGVEVHNAKTKPREEQYNSTYRVVSVLTVLHQDWLNGKEYKCKVSNKALPAPIEKTISKAKGQPREPQVCTLPPSRDELTKNQVSLWCLVKGFYPSDIAVEWESNGQPENNYKTTPPVLDSDGSFFLYSKLTVDKSRWQQGNVFSCSVMHEALHNRYTQKSLSLSP
B2: GLS3000 G91D one-arm antibody (antibody, human IgG1, kappa, L234A L235A, N297A, name in Kabat numbering)
light: DIVMTQSPLSLPVTPGEPASISCRSSQSLVHSNRNTYLHWYQQKPGQAPRLLIYKVSNRFSGVPDRFSGSGSGTDFTLKISRVEAEDVGVYYCGQDTQVPYTFGQGTKLEIKRTVAAPSVFIFPPSDEQLKSGTASVVCLLNNFYPREAKVQWKVDNALQSGNSQESVTEQDSKDSTYSLSSTLTLSKADYEKHKVYACEVTHQGLSSPVTKSFNRGEC
heavy: QVQLVESGGGVVQPGRSLRLSCAASGFTFSNAWMHWVRQAPGKGLEWVAQIKAKSNNYATYYAESVKGRFTISRDDSKNSLYLQMNSLKTEDTAVYYCRYVHYGAYYGVDAWGQGTTVTVSSASTKGPSVFPLAPSSKSTSGGTAALGCLVKDYFPEPVTVSWNSGALTSGVHTFPAVLQSSGLYSLSSVVTVPSSSLGTQTYICNVNHKPSNTKVDKKVEPKSCDKTHTCPPCPAPEAAGGPSVFLFPPKPKDTLMISRTPEVTCVVVDVSHEDPEVKFNWYVDGVEVHNAKTKPREEQYASTYRVVSVLTVLHQDWLNGKEYKCKVSNKALPAPIEKTISKAKGQPREPQVYTLPPSRCELTKNQVSLSCAVKGFYPSDIAVEWESNGQPENNYKTTPPVLDSDGSFFLVSKLTVDKSRWQQGNVFSCSVMHEALHNHYTQKSLSLSPDYKDDDDK
chain: EPKSSDKTHTCPPCPAPELLGGPSVFLFPPKPKDTLMISRTPEVTCVVVDVSHEDPEVKFNWYVDGVEVHNAKTKPREEQYNSTYRVVSVLTVLHQDWLNGKEYKCKVSNKALPAPIEKTISKAKGQPREPQVCTLPPSRDELTKNQVSLWCLVKGFYPSDIAVEWESNGQPENNYKTTPPVLDSDGSFFLYSKLTVDKSRWQQGNVFSCSVMHEALHNRYTQKSLSLSP
B3: GLS3000 G91P one-arm antibody (antibody, human IgG1, kappa, L234A L235A, N297A, name in Kabat numbering)
light: DIVMTQSPLSLPVTPGEPASISCRSSQSLVHSNRNTYLHWYQQKPGQAPRLLIYKVSNRFSGVPDRFSGSGSGTDFTLKISRVEAEDVGVYYCGQPTQVPYTFGQGTKLEIKRTVAAPSVFIFPPSDEQLKSGTASVVCLLNNFYPREAKVQWKVDNALQSGNSQESVTEQDSKDSTYSLSSTLTLSKADYEKHKVYACEVTHQGLSSPVTKSFNRGEC
heavy: QVQLVESGGGVVQPGRSLRLSCAASGFTFSNAWMHWVRQAPGKGLEWVAQIKAKSNNYATYYAESVKGRFTISRDDSKNSLYLQMNSLKTEDTAVYYCRYVHYGAYYGVDAWGQGTTVTVSSASTKGPSVFPLAPSSKSTSGGTAALGCLVKDYFPEPVTVSWNSGALTSGVHTFPAVLQSSGLYSLSSVVTVPSSSLGTQTYICNVNHKPSNTKVDKKVEPKSCDKTHTCPPCPAPEAAGGPSVFLFPPKPKDTLMISRTPEVTCVVVDVSHEDPEVKFNWYVDGVEVHNAKTKPREEQYASTYRVVSVLTVLHQDWLNGKEYKCKVSNKALPAPIEKTISKAKGQPREPQVYTLPPSRCELTKNQVSLSCAVKGFYPSDIAVEWESNGQPENNYKTTPPVLDSDGSFFLVSKLTVDKSRWQQGNVFSCSVMHEALHNHYTQKSLSLSPDYKDDDDK
chain: EPKSSDKTHTCPPCPAPELLGGPSVFLFPPKPKDTLMISRTPEVTCVVVDVSHEDPEVKFNWYVDGVEVHNAKTKPREEQYNSTYRVVSVLTVLHQDWLNGKEYKCKVSNKALPAPIEKTISKAKGQPREPQVCTLPPSRDELTKNQVSLWCLVKGFYPSDIAVEWESNGQPENNYKTTPPVLDSDGSFFLYSKLTVDKSRWQQGNVFSCSVMHEALHNRYTQKSLSLSP
B4: GLS3000 G91E one-arm antibody (antibody, human IgG1, kappa, L234A L235A, N297A, name in Kabat numbering)
light: DIVMTQSPLSLPVTPGEPASISCRSSQSLVHSNRNTYLHWYQQKPGQAPRLLIYKVSNRFSGVPDRFSGSGSGTDFTLKISRVEAEDVGVYYCGQETQVPYTFGQGTKLEIKRTVAAPSVFIFPPSDEQLKSGTASVVCLLNNFYPREAKVQWKVDNALQSGNSQESVTEQDSKDSTYSLSSTLTLSKADYEKHKVYACEVTHQGLSSPVTKSFNRGEC
heavy: QVQLVESGGGVVQPGRSLRLSCAASGFTFSNAWMHWVRQAPGKGLEWVAQIKAKSNNYATYYAESVKGRFTISRDDSKNSLYLQMNSLKTEDTAVYYCRYVHYGAYYGVDAWGQGTTVTVSSASTKGPSVFPLAPSSKSTSGGTAALGCLVKDYFPEPVTVSWNSGALTSGVHTFPAVLQSSGLYSLSSVVTVPSSSLGTQTYICNVNHKPSNTKVDKKVEPKSCDKTHTCPPCPAPEAAGGPSVFLFPPKPKDTLMISRTPEVTCVVVDVSHEDPEVKFNWYVDGVEVHNAKTKPREEQYASTYRVVSVLTVLHQDWLNGKEYKCKVSNKALPAPIEKTISKAKGQPREPQVYTLPPSRCELTKNQVSLSCAVKGFYPSDIAVEWESNGQPENNYKTTPPVLDSDGSFFLVSKLTVDKSRWQQGNVFSCSVMHEALHNHYTQKSLSLSPDYKDDDDK
chain: EPKSSDKTHTCPPCPAPELLGGPSVFLFPPKPKDTLMISRTPEVTCVVVDVSHEDPEVKFNWYVDGVEVHNAKTKPREEQYNSTYRVVSVLTVLHQDWLNGKEYKCKVSNKALPAPIEKTISKAKGQPREPQVCTLPPSRDELTKNQVSLWCLVKGFYPSDIAVEWESNGQPENNYKTTPPVLDSDGSFFLYSKLTVDKSRWQQGNVFSCSVMHEALHNRYTQKSLSLSP

biological target: T1, CD3 epsilon homodimer protein (UniProt P07766 23-126); assay: SPR Biacore T200, CD3e homodimer on chip, antibody analyte;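 further: CD3 epsilon homodimer amine-coupled on CM4 sensor chip, antibodies injected as analyte at 25 °C in HBS-EP+, ratio ≥0.8 taken as binding retained versus unaltered parent antibody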
T1 construct: Construct of the homodimer is not described; also called CD3 (CD3 epsilon)
T1 sequence (P07766 23-126): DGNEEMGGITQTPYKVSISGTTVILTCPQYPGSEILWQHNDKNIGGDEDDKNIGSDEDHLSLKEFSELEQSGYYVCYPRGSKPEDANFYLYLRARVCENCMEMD

Going from B1 to B2, the “ratio of amounts bound (altered form/GLS3000)” value falls from 0.27 to 0.16.

Compared with B3, B4 is lower in “ratio of amounts bound (altered form/GLS3000)” value: 0.27 for the first, 0.16 for the second.
